According to US20220064329A1 (Novo Nordisk, published 2022):

B1: VH SEQ ID NO 626 / VL SEQ ID NO 422 (antibody, IgG4, V domains shown)
VH: QVQLQESGPGLVKPSQTLSLTCTVSGYSISSDSAWSWIRQPPGKGLEWIGYIQYSGSTNYNPSLKSRVTISRDTSKNQFSLKLSSVTAADTAVYYCARSVNYYGNSFAVGPWGQGTLVTVSS
VL: EIVLTQSPATLSLSPGERATLSCRASQGVSDYLAWYQQKPGQAPRLLIKYASQPATGIPARFSGSGSGTDFTLTISSLEPEDFAVYYCQQGHSFPLTFGQGTKLEIK
notes: humanized 11F2; IgG4 S228P/kappa
B2: VH SEQ ID NO 626 / VL SEQ ID NO 430 (antibody, IgG4, V domains shown)
VH: QVQLQESGPGLVKPSQTLSLTCTVSGYSISSDSAWSWIRQPPGKGLEWIGYIQYSGSTNYNPSLKSRVTISRDTSKNQFSLKLSSVTAADTAVYYCARSVNYYGNSFAVGPWGQGTLVTVSS
VL: EIVLTQSPATLSLSPGERATLSCRASQGVSDYLAWYQQKPGQAPRLLIKYASQPATGIPARFSGSGSGTDFTLTISSLEPEDFGVYYCQNGHSFPLTFGQGTKLEIK
notes: as for B1
B3: VH SEQ ID NO 626 / VL SEQ ID NO 438 (antibody, IgG4, V domains shown)
VH: QVQLQESGPGLVKPSQTLSLTCTVSGYSISSDSAWSWIRQPPGKGLEWIGYIQYSGSTNYNPSLKSRVTISRDTSKNQFSLKLSSVTAADTAVYYCARSVNYYGNSFAVGPWGQGTLVTVSS
VL: EIVLTQSPATLSLSPGERATLSCRASQGVSDYLAWYQQKPGQAPRLLIKYASQPATGIPARFSGSGSGTDFTLTISSLEPEDVAVYYCQNGHSFPLTFGQGTKLEIK
notes: as for B1
B4: VH SEQ ID NO 626 / VL SEQ ID NO 446 (antibody, IgG4, V domains shown)
VH: QVQLQESGPGLVKPSQTLSLTCTVSGYSISSDSAWSWIRQPPGKGLEWIGYIQYSGSTNYNPSLKSRVTISRDTSKNQFSLKLSSVTAADTAVYYCARSVNYYGNSFAVGPWGQGTLVTVSS
VL: EIVLTQSPATLSLSPGERATLSCRASQGVSDYLAWYQQKPGQAPRLLIKYTSQPATGIPARFSGSGSGTDFTLTISSLEPEDFAVYYCQNGHSFPLTFGQGTKLEIK
notes: as for B1
B5: VH SEQ ID NO 626 / VL SEQ ID NO 454 (antibody, IgG4, V domains shown)
VH: QVQLQESGPGLVKPSQTLSLTCTVSGYSISSDSAWSWIRQPPGKGLEWIGYIQYSGSTNYNPSLKSRVTISRDTSKNQFSLKLSSVTAADTAVYYCARSVNYYGNSFAVGPWGQGTLVTVSS
VL: EIVLTQSPATLSLSPGERATLSCRASQGVSDYLHWYQQKPGEAPRLLIKYASQPATGIPARFSGSGSGTDFTLTISSLEPEDFAVYYCQNGHSFPLTFGQGTKLEIK
notes: as for B1
B6: VH SEQ ID NO 626 / VL SEQ ID NO 462 (antibody, IgG4, V domains shown)
VH: QVQLQESGPGLVKPSQTLSLTCTVSGYSISSDSAWSWIRQPPGKGLEWIGYIQYSGSTNYNPSLKSRVTISRDTSKNQFSLKLSSVTAADTAVYYCARSVNYYGNSFAVGPWGQGTLVTVSS
VL: EIVLTQSPATLSLSPGERATLSCRASQGVSDYLHWYQQKPGQAPRLLIKYASQPATGIPARFSGSGSGTDFTLTISSLEPEDFAVYYCQNGHSFPLTFGAGTKLEIK
notes: as for B1
B7: VH SEQ ID NO 626 / VL SEQ ID NO 478 (antibody, IgG4, V domains shown)
VH: QVQLQESGPGLVKPSQTLSLTCTVSGYSISSDSAWSWIRQPPGKGLEWIGYIQYSGSTNYNPSLKSRVTISRDTSKNQFSLKLSSVTAADTAVYYCARSVNYYGNSFAVGPWGQGTLVTVSS
VL: EIVLTQSPATLSLSPGERATLSCRASQGVSDYLHWYQQKPGQAPRLLIKYASQPATGIPARFSGSGSGTDFTLTISSLEPEDFAVYYCQQGHSFPLTFGQGTKLEIK
notes: as for B1
B8: VH SEQ ID NO 626 / VL SEQ ID NO 486 (antibody, IgG4, V domains shown)
VH: QVQLQESGPGLVKPSQTLSLTCTVSGYSISSDSAWSWIRQPPGKGLEWIGYIQYSGSTNYNPSLKSRVTISRDTSKNQFSLKLSSVTAADTAVYYCARSVNYYGNSFAVGPWGQGTLVTVSS
VL: EIVLTQSPATLSLSPGERATLSCRASQGVSDYLHWYQQKPGQAPRLLIKYASQPATGIPARFSGSGSGTDFTLTISSLEPEDFGVYYCQNGHSFPLTFGQGTKLEIK
notes: as for B1
B9: VH SEQ ID NO 626 / VL SEQ ID NO 494 (antibody, IgG4, V domains shown)
VH: QVQLQESGPGLVKPSQTLSLTCTVSGYSISSDSAWSWIRQPPGKGLEWIGYIQYSGSTNYNPSLKSRVTISRDTSKNQFSLKLSSVTAADTAVYYCARSVNYYGNSFAVGPWGQGTLVTVSS
VL: EIVLTQSPATLSLSPGERATLSCRASQGVSDYLHWYQQKPGQAPRLLIKYASQPATGIPARFSGSGSGTDFTLTISSLEPEDVAVYYCQNGHSFPLTFGQGTKLEIK
notes: as for B1
B10: VH SEQ ID NO 626 / VL SEQ ID NO 502 (antibody, IgG4, V domains shown)
VH: QVQLQESGPGLVKPSQTLSLTCTVSGYSISSDSAWSWIRQPPGKGLEWIGYIQYSGSTNYNPSLKSRVTISRDTSKNQFSLKLSSVTAADTAVYYCARSVNYYGNSFAVGPWGQGTLVTVSS
VL: EIVLTQSPATLSLSPGERATLSCRASQGVSDYLHWYQQKPGQAPRLLIKYTSQPATGIPARFSGSGSGTDFTLTISSLEPEDFAVYYCQNGHSFPLTFGQGTKLEIK
notes: as for B1
B11: VH SEQ ID NO 634 / VL SEQ ID NO 310 (antibody, IgG4, V domains shown)
VH: QVQLQESGPGLVKPSQTLSLTCTVSGYSISSDSAWSWIRQPPGKGLEWIGYIQYSGSTNYNPSLKSRVTISRDTSKNQFSLKLSSVTAADTAVYYCARSVNYYGNSFAVGYWGQGTLVTVSS
VL: EIVLTQSPATLSLSPGERATLSCRASQGISDYLAWYQQKPGQAPRLLIKYASQPATGIPARFSGSGSGTDFTLTISSLEPEDFAVYYCQNGHSFPLTFGQGTKLEIK
notes: as for B1
B12: VH SEQ ID NO 634 / VL SEQ ID NO 318 (antibody, IgG4, V domains shown)
VH: QVQLQESGPGLVKPSQTLSLTCTVSGYSISSDSAWSWIRQPPGKGLEWIGYIQYSGSTNYNPSLKSRVTISRDTSKNQFSLKLSSVTAADTAVYYCARSVNYYGNSFAVGYWGQGTLVTVSS
VL: EIVLTQSPATLSLSPGERATLSCRASQGISDYLHWYQQKPGEAPRLLIKYTSQPATGIPARFSGSGSGTDFTLTISSLEPEDFAVYYCQNGHSFPLTFGQGTKLEIK
notes: as for B1
B13: VH SEQ ID NO 634 / VL SEQ ID NO 326 (antibody, IgG4, V domains shown)
VH: QVQLQESGPGLVKPSQTLSLTCTVSGYSISSDSAWSWIRQPPGKGLEWIGYIQYSGSTNYNPSLKSRVTISRDTSKNQFSLKLSSVTAADTAVYYCARSVNYYGNSFAVGYWGQGTLVTVSS
VL: EIVLTQSPATLSLSPGERATLSCRASQGISDYLHWYQQKPGEAPRLLIKYTSQPATGIPARFSGSGSGTDFTLTISSLEPEDFGVYYCQNGHSFPLTFGAGTKLELK
notes: as for B1
B14: VH SEQ ID NO 634 / VL SEQ ID NO 334 (antibody, IgG4, V domains shown)
VH: QVQLQESGPGLVKPSQTLSLTCTVSGYSISSDSAWSWIRQPPGKGLEWIGYIQYSGSTNYNPSLKSRVTISRDTSKNQFSLKLSSVTAADTAVYYCARSVNYYGNSFAVGYWGQGTLVTVSS
VL: EIVLTQSPATLSLSPGERATLSCRASQGISDYLHWYQQKPGQAPRLLIKYASQPATGIPARFSGSGSGTDFTLTISSLEPEDFAVYYCQNGHSFPLTFGQGTKLEIK
notes: as for B1
B15: VH SEQ ID NO 634 / VL SEQ ID NO 342 (antibody, IgG4, V domains shown)
VH: QVQLQESGPGLVKPSQTLSLTCTVSGYSISSDSAWSWIRQPPGKGLEWIGYIQYSGSTNYNPSLKSRVTISRDTSKNQFSLKLSSVTAADTAVYYCARSVNYYGNSFAVGYWGQGTLVTVSS
VL: EIVLTQSPATLSLSPGERATLSCRASQGISDYLHWYQQKPGQAPRLLIKYTSQPATGIPARFSGSGSGRDFTLTISSLEPEDFAVYYCQNGHSFPLTFGAGTKLELK
notes: as for B1
B16: VH SEQ ID NO 634 / VL SEQ ID NO 350 (antibody, IgG4, V domains shown)
VH: QVQLQESGPGLVKPSQTLSLTCTVSGYSISSDSAWSWIRQPPGKGLEWIGYIQYSGSTNYNPSLKSRVTISRDTSKNQFSLKLSSVTAADTAVYYCARSVNYYGNSFAVGYWGQGTLVTVSS
VL: EIVLTQSPATLSLSPGERATLSCRASQGISDYLHWYQQKPGQAPRLLIKYTSQPATGIPARFSGSGSGTDFTLTISSLEPEDFAVYYCQNGHSFPLTFGAGTKLELK
notes: as for B1
B17: VH SEQ ID NO 634 / VL SEQ ID NO 358 (antibody, IgG4, V domains shown)
VH: QVQLQESGPGLVKPSQTLSLTCTVSGYSISSDSAWSWIRQPPGKGLEWIGYIQYSGSTNYNPSLKSRVTISRDTSKNQFSLKLSSVTAADTAVYYCARSVNYYGNSFAVGYWGQGTLVTVSS
VL: EIVLTQSPATLSLSPGERATLSCRASQGISDYLHWYQQKPGQAPRLLIKYTSQPATGIPARFSGSGSGTDFTLTISSLEPEDFAVYYCQNGHSFPLTFGQGTKLEIK
notes: as for B1
B18: VH SEQ ID NO 634 / VL SEQ ID NO 366 (antibody, IgG4, V domains shown)
VH: QVQLQESGPGLVKPSQTLSLTCTVSGYSISSDSAWSWIRQPPGKGLEWIGYIQYSGSTNYNPSLKSRVTISRDTSKNQFSLKLSSVTAADTAVYYCARSVNYYGNSFAVGYWGQGTLVTVSS
VL: EIVLTQSPATLSLSPGERATLSCRASQGLSDYLAWYQQKPGEAPRLLIKYASQPATGIPARFSGSGSGTDFTLTISSLEPEDFAVYYCQNGHSFPLTFGQGTKLEIK
notes: as for B1
B19: VH SEQ ID NO 634 / VL SEQ ID NO 374 (antibody, IgG4, V domains shown)
VH: QVQLQESGPGLVKPSQTLSLTCTVSGYSISSDSAWSWIRQPPGKGLEWIGYIQYSGSTNYNPSLKSRVTISRDTSKNQFSLKLSSVTAADTAVYYCARSVNYYGNSFAVGYWGQGTLVTVSS
VL: EIVLTQSPATLSLSPGERATLSCRASQGLSDYLAWYQQKPGQAPRLLIKYTSQPATGIPARFSGSGSGTDFTLTISSLEPEDFAVYYCQNGHSFPLTFGQGTKLEIK
notes: as for B1
B20: VH SEQ ID NO 634 / VL SEQ ID NO 382 (antibody, IgG4, V domains shown)
VH: QVQLQESGPGLVKPSQTLSLTCTVSGYSISSDSAWSWIRQPPGKGLEWIGYIQYSGSTNYNPSLKSRVTISRDTSKNQFSLKLSSVTAADTAVYYCARSVNYYGNSFAVGYWGQGTLVTVSS
VL: EIVLTQSPATLSLSPGERATLSCRASQGLSDYLHWYQQKPGEAPRLLIKYASQPATGIPARFSGSGSGTDFTLTISSLEPEDFAVYYCQNGHSFPLTFGQGTKLEIK
notes: as for B1

Each binder was assayed against T1, recombinant human activated Factor VII (FVIIa) (human, UniProt P08709 61-212; P08709 213-466, ten glutamate residues of the Gla domain may be gamma-carboxylated) (assay: BLI (Fortebio)).
T1 construct: chains tethered by a disulfide bond; also called Factor VIIa; rFVIIa
T1 sequence 1: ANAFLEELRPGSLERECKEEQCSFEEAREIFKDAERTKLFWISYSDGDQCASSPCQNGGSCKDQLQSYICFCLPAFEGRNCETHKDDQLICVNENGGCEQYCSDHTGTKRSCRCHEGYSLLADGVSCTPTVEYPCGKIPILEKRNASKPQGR
T1 sequence 2: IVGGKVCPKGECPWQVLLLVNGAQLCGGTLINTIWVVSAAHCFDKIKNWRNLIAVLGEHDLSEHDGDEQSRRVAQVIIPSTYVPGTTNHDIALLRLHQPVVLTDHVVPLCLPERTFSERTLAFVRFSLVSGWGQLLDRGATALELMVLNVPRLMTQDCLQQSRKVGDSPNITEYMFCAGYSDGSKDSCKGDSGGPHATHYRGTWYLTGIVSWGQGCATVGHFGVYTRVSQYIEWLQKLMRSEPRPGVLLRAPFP
B1 showed a Kd of 2400 nM. For B2, the Kd was 53 nM. B3 gave a Kd of 77 nM. B4 was tested, and the Kd was 880 nM. With B5 the Kd was 1.4 nM. In the case of B6, the Kd is reported as 1.4 nM. B7 was tested, and the Kd was 2.5 nM. Work on B8 yielded a Kd of 1.6 nM. With B9 the Kd was 1.8 nM. With B10 the Kd was 1.8 nM. B11 showed a Kd of 2.1 nM. B12 gave a Kd of 0.86 nM. Work on B13 yielded a Kd of 0.9 nM. For B14, the Kd was 1 nM. Binder B15 has a Kd of 1 nM. Work on B16 yielded a Kd of 1.2 nM. Work on B17 yielded a Kd of 0.82 nM. In the case of B18, the Kd is reported as 3.1 nM. Work on B19 yielded a Kd of 4.5 nM. Work on B20 yielded a Kd of 1.2 nM.
